Laboratory results published in publication PMC10996581 (The Journal of Cell Biology, 2024).
Where no end group is shown, it is not given here.

T1: IRE1αLDΔ308–357 mutant (human, UniProt O75460 24-443, Δ308–357)
T1 sequence: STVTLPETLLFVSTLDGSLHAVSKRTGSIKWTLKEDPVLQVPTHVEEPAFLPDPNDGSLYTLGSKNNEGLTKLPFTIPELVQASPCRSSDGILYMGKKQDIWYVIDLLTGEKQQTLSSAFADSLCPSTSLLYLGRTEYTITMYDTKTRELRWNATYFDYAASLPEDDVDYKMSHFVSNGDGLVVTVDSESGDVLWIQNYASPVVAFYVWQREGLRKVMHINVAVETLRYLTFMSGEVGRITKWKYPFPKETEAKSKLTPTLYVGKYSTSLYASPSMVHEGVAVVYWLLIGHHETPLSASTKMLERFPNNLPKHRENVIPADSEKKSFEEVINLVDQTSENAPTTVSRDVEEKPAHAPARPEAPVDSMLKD

B1: His6-CTxA1 (enzymatic A1 chain of the cholera toxin A subunit) (domain or fragment)
chain: NDDKLYRADSRPPDEIKQSGGLMPRGQSEYFDRGTQMNINLYDHARGTQTGFVRHDDGYVSTSISLRSAHLVGQTILSGHSTYYIYVIATAPNMFNVNDVLGAYSPHPDEQEVSALGGIPYSQIYGWYRVHFGVLDEQLHRNRGYRDRYYSNLDIAPAADGYGLAGFPPEHRAWREEPWIHHAPPGCGNAPRSS

Experiments:
IRE1αLDΔ308–357 mutant [1] = biological target: T1, IRE1αLDΔ308–357 mutant; assay: MST
IRE1αLDΔ308–357 mutant [2] = biological target: T1, IRE1αLDΔ308–357 mutant; assay: […]

Binder | binding result (IRE1αLDΔ308–357 mutant [1]) | binding result (IRE1αLDΔ308–357 mutant [2])
B1 | binds | 
IYGWYRVHFGVLDEQLHR (also: 5-FAM labelled, position not given here) [CTxA_(I124-R141) peptide, 5-FAM labelled] |  | binds
